Laboratory results from US20040256230A1, “Microfluidic devices for transverse electrophoresis and isoelectric focusing” (University of Washington, priority 1999, published 2004).
Where “and” joins values, the source holds several entries; their conditions need not be identical. Equal values may be shown once.

Experiments:
[1] = Isoelectric point by polyacrylamide gel isoelectric focusing, compared with positions of standards; type: physicochemical; settings: constant voltage, mini IEF cell
Description: The isoelectric points (pI) of proteins were determined experimentally by polyacrylamide gel isoelectric focusing, using the procedure specified by BiORad Laboratories, Inc. (Hercules, Calif.). A mini IEF cell (Model 111) purchased from BiORad equipped by two graphite electrodes was employed for this purpose. Focusing was carried out under constant voltage conditions (Power Pac 1000, BiORad).
(§1) Isoelectric points of proteins were determined by comparison with positions of standards.

[2] = Stability of the fluorescence of the BSA conjugate over a broad range of pH values; type: physicochemical; settings: pH 2.5 to 10.0, 1.52 μM, excitation 495 nm, every 30 minutes for 4.5 hours
Description: as §1
The fluorescence of the BSA-Bodipy FL conjugate is reported to be insensitive to pH between 4 and 8. […] A fluorescence spectrum from 500-550 nm for an excitation wavelength of 495.0±2.5 nm was recorded for each of the solutions immediately after its preparation and then after each 30 minutes for 4.5 hours.

[3] = stated, literature or standard value; cited from earlier work
[4] = Isoelectric focusing in the microchannel (microfluidic IEF), position of the focused zone; type: physicochemical; settings: 0.1 mM histidine buffer, initial pH 7.1, 2.5V for 6 minutes
Description: Bovine hemoglobin (Hb) was selected as a test case because of its strong absorbance at 550 nm (facilitating observation without need for additional dyes). The pI of Hb is 7.1, as verified by polyacrylamide gel isoelectric focusing run at the same concentration as was used for IEF in the microchannel. […] A voltage of 2.5V (resulting in a current of 5 μA) was applied for 6 minutes. Two zones of higher optical density close to the electrodes were formed within 15 s. They moved towards each other meeting to form one dark zone after 5 minutes. Even with a relatively high concentration of Hb (1.55×10^−4 M), the darker zones and their migration were barely visible in color images. Normalized plots of green pixel values vs. position allowed monitoring of Hb migration. The position of the final focused zone of Hb in the microchannel corresponded to a pH of 7.1±0.3 on the basis of previous results with acid-base indicators under similar conditions (FIG. 8). The pI value determined by IEF in the microchannel was within experimental error, identical to that in the literature and that determined by our gel IEF experiment.

| Compound | pI determined by polyacrylamide gel isoelectric focusing [1] | change of fluorescence over time [2] | isoelectric point (pI) [3] | pH corresponding to the position of the final focused zone in the microchannel [4] |
| --- | --- | --- | --- | --- |
| BSA conjugate: fluorescent bovine serum albumin (BSA)—Bodipy FL conjugate (Molecular Probes) | 4.6±0.1 and 4.65 | did not significantly change | – | – |
| human hemoglobin A: pI standard in gel isoelectric focusing | – | – | 7.1 | – |
| Bovine hemoglobin: bovine hemoglobin (Sigma), test analyte for isoelectric focusing | 7.1 | – | 7.1 | 7.1±0.3 |
| N[C@@H](Cc1c[nH]cn1)C(=O)O [histidine] | – | – | 7.4 | – |
| phycocyanin | – | – | 4.65 | – |
